Results published in IntAct's records for PubMed 19468300.

B1: Protein regulator of cytokinesis 1 (Homo sapiens), O43663 (parent)
chain: MRRSEVLAEESIVCLQKALNHLREIWELIGIPEDQRLQRTEVVKKHIKELLDMMIAEEESLKERLIKSISVCQKELNTLCSELHVEPFQEEGETTILQLEKDLRTQVELMRKQKKERKQELKLLQEQDQELCEILCMPHYDIDSASVPSLEELNQFRQHVTTLRETKASRREEFVSIKRQIILCMEALDHTPDTSFERDVVCEDEDAFCLSLENIATLQKLLRQLEMQKSQNEAVCEGLRTQIRELWDRLQIPEEEREAVATIMSGSKAKVRKALQLEVDRLEELKMQNMKKVIEAIRVELVQYWDQCFYSQEQRQAFAPFCAEDYTESLLQLHDAEIVRLKNYYEVHKELFEGVQKWEETWRLFLEFERKASDPNRFTNRGGNLLKEEKQRAKLQKMLPKLEEELKARIELWEQEHSKAFMVNGQKFMEYVAEQWEMHRLEKERAKQERQLKNKKQTETEMLYGSAPRTPSKRRGLAPNTPGKARKLNTTTMSNATANSSIRPIFGGTVYHSPVSRLPPSGSKPVAASTCSGKKTPRTGRHGANKENLELNGSILSGGYPGSAPLQRNFSINSVASTYSEFAKDPSLSDSSTVGLQRELSKASKSDATSGILNSTNIQS
B2: Protein ECT2 (Homo sapiens), Q9H8V3-4 (parent)
chain: MAENSVLTSTTGRTSLADSSIFDSKVTEISKENLLIGSTSYVEEEMPQIETRVILVQEAGKQEELIKALKDIKVGFVKMESVEEFEGLDSPEFENVFVVTDFQDSVFNDLYKADCRVIGPPVVLNCSQKGEPLPFSCRPLYCTSMMNLVLCFTGFRKKEELVRLVTLVHHMGGVIRKDFNSKVTHLVANCTQGEKFRVAVSLGTPIMKPEWIYKAWERRNEQDFYAAVDDFRNEFKVPPFQDCILSFLGFSDEEKTNMEEMTEMQGGKYLPLGDERCTHLVVEENIVKDLPFEPSKKLYVVKQEWFWGSIQMDARAGETMYLYEKANTPELKKSVSMLSLNTPNSNRKRRRLKETLAQLSRETDVSPFPPRKRPSAEHSLSIGSLLDISNTPESSINYGDTPKSCTKSSKSSTPVPSKQSARWQVAKELYQTESNYVNILATIIQLFQVPLEEEGQRGGPILAPEEIKTIFGSIPDIFDVHTKIKDDLEDLIVNWDESKSIGDIFLKYSKDLVKTYPPFVNFFEMSKETIIKCEKQKPRFHAFLKINQAKPECGRQSLVELLIRPVQRLPSVALLLNDLKKHTADENPDKSTLEKAIGSLKEVMTHINEDKRKTEAQKQIFDVVYEVDGCPANLLSSHRSLVQRVETISLGEHPCDRGEQVTLFLFNDCLEIARKRHKVIGTFRSPHGQTRPPASLKHIHLMPLSQIKKVLDIRETEDCHNAFALLVRPPTEQANVLLSFQMTSDELPKENWLKMLCRHVANTICKADAENLIYTADPESFEVNTKDMDSTLSRASRAIKKTSKKVTRAFSFSKTPKRALRRALMTSHGSVEGRSPSSNDKHVMSRLSSTSSLAGIPSPSLVSLPSFFERRSHTLSRSTTHLI
partner: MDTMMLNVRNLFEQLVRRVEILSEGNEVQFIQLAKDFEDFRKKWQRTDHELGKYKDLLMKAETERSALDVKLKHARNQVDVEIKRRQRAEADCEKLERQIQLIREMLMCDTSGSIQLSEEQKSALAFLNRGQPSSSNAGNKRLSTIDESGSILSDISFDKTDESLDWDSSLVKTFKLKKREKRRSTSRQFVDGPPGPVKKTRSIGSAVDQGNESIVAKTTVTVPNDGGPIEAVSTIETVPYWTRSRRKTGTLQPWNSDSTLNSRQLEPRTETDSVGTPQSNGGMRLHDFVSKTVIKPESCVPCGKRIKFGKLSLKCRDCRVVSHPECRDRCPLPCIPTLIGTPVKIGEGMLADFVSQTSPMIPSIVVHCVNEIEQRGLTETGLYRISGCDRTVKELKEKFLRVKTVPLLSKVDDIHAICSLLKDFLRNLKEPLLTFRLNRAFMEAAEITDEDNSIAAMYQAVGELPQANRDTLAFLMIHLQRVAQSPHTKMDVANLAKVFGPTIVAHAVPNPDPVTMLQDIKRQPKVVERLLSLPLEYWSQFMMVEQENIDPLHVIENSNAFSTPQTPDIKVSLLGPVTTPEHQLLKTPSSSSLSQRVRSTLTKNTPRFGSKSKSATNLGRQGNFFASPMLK
B3: Rac GTPase-activating protein 1 (Homo sapiens), Q9H0H5 (parent)
chain: B2 partner
partner: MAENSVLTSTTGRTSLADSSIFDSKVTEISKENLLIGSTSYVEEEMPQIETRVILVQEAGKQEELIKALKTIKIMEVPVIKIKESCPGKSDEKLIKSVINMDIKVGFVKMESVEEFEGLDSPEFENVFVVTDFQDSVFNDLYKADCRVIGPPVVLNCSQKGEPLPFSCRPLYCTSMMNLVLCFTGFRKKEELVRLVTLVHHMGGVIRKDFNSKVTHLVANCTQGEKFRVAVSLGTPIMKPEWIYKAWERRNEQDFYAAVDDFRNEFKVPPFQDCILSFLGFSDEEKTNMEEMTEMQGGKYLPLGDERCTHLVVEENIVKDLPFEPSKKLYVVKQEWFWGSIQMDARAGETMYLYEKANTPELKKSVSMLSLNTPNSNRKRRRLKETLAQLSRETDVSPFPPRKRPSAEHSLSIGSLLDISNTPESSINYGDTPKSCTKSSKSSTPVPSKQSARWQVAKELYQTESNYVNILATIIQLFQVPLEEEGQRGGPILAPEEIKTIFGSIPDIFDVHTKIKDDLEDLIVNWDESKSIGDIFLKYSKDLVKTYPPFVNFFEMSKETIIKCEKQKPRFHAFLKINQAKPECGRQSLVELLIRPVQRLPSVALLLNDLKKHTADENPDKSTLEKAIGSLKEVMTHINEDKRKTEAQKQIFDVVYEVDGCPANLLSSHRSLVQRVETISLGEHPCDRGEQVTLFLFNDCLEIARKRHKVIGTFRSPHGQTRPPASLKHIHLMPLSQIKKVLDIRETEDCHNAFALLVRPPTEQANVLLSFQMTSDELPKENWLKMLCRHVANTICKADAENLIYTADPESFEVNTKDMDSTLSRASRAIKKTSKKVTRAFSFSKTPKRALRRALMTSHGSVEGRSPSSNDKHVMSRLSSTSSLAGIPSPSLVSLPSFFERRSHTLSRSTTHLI

Variants of: B1
Settings: with plk1_human PLK1, P53350
Sequence of plk1_human PLK1, P53350 (P53350 whole entry): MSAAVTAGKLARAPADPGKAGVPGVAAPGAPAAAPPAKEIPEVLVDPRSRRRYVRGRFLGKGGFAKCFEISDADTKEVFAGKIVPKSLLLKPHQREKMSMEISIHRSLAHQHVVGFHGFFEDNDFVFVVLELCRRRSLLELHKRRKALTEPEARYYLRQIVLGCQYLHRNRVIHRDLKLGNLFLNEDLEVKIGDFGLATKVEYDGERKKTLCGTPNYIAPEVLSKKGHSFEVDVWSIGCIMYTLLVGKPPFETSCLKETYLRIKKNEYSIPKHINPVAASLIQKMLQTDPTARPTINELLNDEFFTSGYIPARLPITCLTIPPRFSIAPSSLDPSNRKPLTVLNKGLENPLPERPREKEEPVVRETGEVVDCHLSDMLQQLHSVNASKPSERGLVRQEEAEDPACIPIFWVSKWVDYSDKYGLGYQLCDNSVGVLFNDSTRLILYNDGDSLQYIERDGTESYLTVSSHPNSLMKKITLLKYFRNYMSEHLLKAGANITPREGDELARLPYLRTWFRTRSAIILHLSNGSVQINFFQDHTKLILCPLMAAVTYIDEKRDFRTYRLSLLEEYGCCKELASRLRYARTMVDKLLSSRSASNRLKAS

| effect of a mutation on the interaction | Variant |
| --- | --- |
| disrupting interaction strength | S615A;T616A |

Variants of: B2
Settings: with rgap1_human RACGAP1, Q9H0H5

| effect of a mutation on the interaction | Variant |
| --- | --- |
| disrupting interaction | K195A |
| disrupting interaction strength | T153A;K195A |
| disrupting interaction strength | T153A |

Variants of: B3
Settings: with ect2_human ECT2, Q9H8V3

| effect of a mutation on the interaction | Variant |
| --- | --- |
| disrupting interaction | S149A;S157A;S164A;S170A |
